# Measurements published in patent US20170137511A1 (CALYPSO BIOTECH, published 2017).
# Experiments:
# [1] = target: recombinant human IL-15 (Prospec cat no. CYT230) (human, UniProt P40933 49-162); test: ELISA, plate-bound human IL-15; printed as BC50 (half-maximal binding concentration)
# Experimental: (§1) Maxisorp plates were coated with recombinant human IL-15 (Prospec cat no. CYT230) or Rhesus macaque IL-15 (MyBiosource cat. no. MBS948894) at 100 ng/well in carbonate coating buffer for 2 hours at 37° C. Since published sequences of Rhesus macaque and Cynomolgus monkey IL-15 are identical, such recombinant IL-15 protein was referred to as Macaque Monkey IL-15. Tested human IL-15 recombinant protein has a sequence identical to that provided in SEQ ID NO: 1 but with an additional methionine at the N-terminal position as usually done for expressing recombinant proteins in E. Coli. Tested recombinant Macaque Monkey IL-15 was produced in yeast and has a sequence identical to that provided in SEQ ID NO: 4 but with an additional N-terminal His tag.
# (§2) The plate was then blocked with 2% normal goat serum for 30 min at 37° C. and washed 6 times with PBS-Tween (0.05% Tween-20 in PBS, v/v). Test antibodies were added to the plate in triplicate at various dilutions in PBS-Tween and the plate was incubated with gentle rocking at room temperature for 2 hours. The plate was then washed 6 times with PBS-Tween and an appropriate dilution of goat anti-human IgG antibody (Millipore cat. no. AP309P) conjugated to horseradish peroxidase (HRP) was added to the plate and left rocking at room temperature for 1 hour. The plate was then washed 6 times with PBS-Tween and incubated with TMB substrate. The reaction was stopped by the addition of 1M H₂SO₄ and read at 450 nm. Dose response curves of absorbance versus concentration were plotted and analyzed to determine half-maximal binding concentrations (BC₅₀) using the Graphpad Prism software. BC₅₀ values expressed as molarity were extrapolated from concentration in ng/ml using a 150 kDa molecular weight value for all antibodies.
# [2] = target: T1, recombinant Macaque Monkey IL-15 (MyBiosource cat. no. MBS948894) (Rhesus macaque / Cynomolgus monkey, UniProt P40221 49-162 (Chlorocebus aethiops entry)); test: ELISA, plate-bound Macaque Monkey IL-15; printed as BC50 (half-maximal binding concentration)
# T1 construct: Produced in yeast; also called Rhesus macaque IL-15; recombinant monkey IL-15; not shown: additional N-terminal His tag
# Experimental: as §1, §2
# recombinant human IL-15 (Prospec cat no. CYT230), sequence (P40933 other isoform, or with tags, fused parts or gaps): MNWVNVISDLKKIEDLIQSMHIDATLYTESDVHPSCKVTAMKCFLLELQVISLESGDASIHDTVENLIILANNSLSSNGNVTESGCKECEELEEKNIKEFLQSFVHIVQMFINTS
# T1 sequence (P40221 49-162): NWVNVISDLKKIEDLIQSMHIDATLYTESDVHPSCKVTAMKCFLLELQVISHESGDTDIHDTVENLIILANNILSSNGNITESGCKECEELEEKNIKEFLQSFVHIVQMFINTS
Binder,EC50 [1],EC50 [2]
"huB-E29-8 (antibody, human IgG1, kappa, V domains shown, Humanized B-E29 variant; human IgG1 (G1m3) / kappa (Km3), produced in CHO cells; also called huVH6/huVL1) VH: EVRLMASGGGLVQPGGSLRLSCAASEFTFSNYAMSWVRQAPGKGLEWVATISRGGDYTYYPDTVKGRFTISRDNSKNTLYLQMNSLRAEDTAVYYCARRVSIITGGWAMDYWGQGTLVTVSS VL: DVVMTQSPLSLPVTLGQPASISCRSSQSIVDITGNTYLEWYQQRPGQSPRLLIYKVFNRFSGVPDRFSGSGSGTDFTLKISRVEAEDVGVYYCFQDSFVPYTFGQGTKLEIKR",1.79 nM,–
"huB-E29-13 (antibody, human IgG1, kappa, V domains shown, Humanized B-E29 variant; human IgG1 (G1m3) / kappa (Km3), produced in CHO cells; also called huVH11/huVL1) VH: EVRLMASGGGLVQPGGSLRLSCAASEFTFSNYAMSWVRQAPGKGLEWVATISRGGDYTYYPDSVKGRFTISRDNSKNTLYLQMNSLRAEDTAVYYCARRVSMITGGWALDYWGQGTLVTVSS VL: DVVMTQSPLSLPVTLGQPASISCRSSQSIVDITGNTYLEWYQQRPGQSPRLLIYKVFNRFSGVPDRFSGSGSGTDFTLKISRVEAEDVGVYYCFQDSFVPYTFGQGTKLEIKR",3.17 nM,–
"huB-E29-15 (antibody, human IgG1, kappa, V domains shown, Humanized B-E29 variant; human IgG1 (G1m3) / kappa (Km3), produced in CHO cells; also called huVH13/huVL1) VH: EVRLMASGGGLVQPGGSLRLSCAASEFTFSNYAMSWVRQAPGKGLEWVATISRGGDYTYYPDSVKGRFTISRDNSKNTLYLQMNSLRAEDTAVYYCARRVSMITGGWAIDYWGQGTLVTVSS VL: DVVMTQSPLSLPVTLGQPASISCRSSQSIVDITGNTYLEWYQQRPGQSPRLLIYKVFNRFSGVPDRFSGSGSGTDFTLKISRVEAEDVGVYYCFQDSFVPYTFGQGTKLEIKR",2.53 nM,–
"huB-E29-17 (antibody, human IgG1, kappa, V domains shown, Humanized B-E29 variant; human IgG1 (G1m3) / kappa (Km3), produced in CHO cells; also called huVH15/huVL1) VH: EVRLMASGGGLVQPGGSLRLSCAASEFTFSNYAMSWVRQAPGKGLEWVATISRGGDYTYYPDTVKGRFTISRDNSKNTLYLQMNSLRAEDTAVYYCARRVSMITGGWAMDYWGQGTLVTVSS VL: DVVMTQSPLSLPVTLGQPASISCRSSQSIVDITGNTYLEWYQQRPGQSPRLLIYKVFNRFSGVPDRFSGSGSGTDFTLKISRVEAEDVGVYYCFQDSFVPYTFGQGTKLEIKR",2.61 nM,–
"huB-E29-16 (antibody, human IgG1, kappa, V domains shown, Humanized B-E29 variant; human IgG1 (G1m3) / kappa (Km3), produced in CHO cells; also called huVH14/huVL1) VH: EVRLMASGGGLVQPGGSLRLSCAASEFTFSNYAMSWVRQAPGKGLEWVATISRGGDYTYYPESVKGRFTISRDNSKNTLYLQMNSLRAEDTAVYYCARRVSMITGGWAMDYWGQGTLVTVSS VL: DVVMTQSPLSLPVTLGQPASISCRSSQSIVDITGNTYLEWYQQRPGQSPRLLIYKVFNRFSGVPDRFSGSGSGTDFTLKISRVEAEDVGVYYCFQDSFVPYTFGQGTKLEIKR",2.01 nM,–
"huB-E29-6 (antibody, human IgG1, kappa, V domains shown, Humanized B-E29 variant; human IgG1 (G1m3) / kappa (Km3), produced in CHO cells; also called huVH4/huVL1) VH: EVRLMASGGGLVQPGGSLRLSCAASEFTFSNYAMSWVRQAPGKGLEWVATISRGGDYTYYPDSVKGRFTISRDNSKNTLYLQMNSLRAEDTAVYYCARRVSLITGGWAMDYWGQGTLVTVSS VL: DVVMTQSPLSLPVTLGQPASISCRSSQSIVDITGNTYLEWYQQRPGQSPRLLIYKVFNRFSGVPDRFSGSGSGTDFTLKISRVEAEDVGVYYCFQDSFVPYTFGQGTKLEIKR",1.84 nM,–

# More lines, in order of falling EC50 [1], values ahead:
EC50 [1],EC50 [2],Binder
3.87 nM,–,"huB-E29-22 (antibody, human IgG1, kappa, V domains shown, Humanized B-E29 variant; human IgG1 (G1m3) / kappa (Km3), produced in CHO cells; also called huVH16/huVL6) VH: EVQLVESGGGLVQPGGSLRLSCAASEFTFSNYAMSWVRQAPGKGLEWVATISRGGDYTYYPDSVKGRFTISRDNSKNTLYLQMNSLRAEDTAVYYCARRVSFITGGYAFDYWGQGTLVTVSS VL: DVVMTQSPLSLPVTLGQPASISCRSSQSIVDITGNTYLEWFQQRPGQSPRRLIYKVFNRFSGVPDRFSGSGSGTDFTLKISRVEAEDVGVYYCFQESFVPYTFGQGTKLEIKR"
2.21 nM,–,"huB-E29-19 (antibody, human IgG1, kappa, V domains shown, Humanized B-E29 variant; human IgG1 (G1m3) / kappa (Km3), produced in CHO cells; also called huVH1/huVL5) VH: EVRLMASGGGLVQPGGSLRLSCAASEFTFSNYAMSWVRQAPGKGLEWVATISRGGDYTYYPDSVKGRFTISRDNSKNTLYLQMNSLRAEDTAVYYCARRVSMITGGWAMDYWGQGTLVTVSS VL: DVVMTQSPLSLPVTLGQPASISCRSSQSIVDITGNTYLEWYQQRPGQSPRLLIYKVFNRFSGVPDRFSGSGSGTDFTLKISRVEAEDVGVYYCFQDTFVPYTFGQGTKLEIKR"
1.47 nM,0.453 nM,"huB-E29-5 (antibody, human IgG1, kappa, V domains shown, Humanized B-E29 variant; human IgG1 (G1m3) / kappa (Km3), produced in CHO cells; also called huVH1/huVL3) VH: EVRLMASGGGLVQPGGSLRLSCAASEFTFSNYAMSWVRQAPGKGLEWVATISRGGDYTYYPDSVKGRFTISRDNSKNTLYLQMNSLRAEDTAVYYCARRVSMITGGWAMDYWGQGTLVTVSS VL: DVVMTQSPLSLPVTLGQPASISCRSSQSIVDITGNTYLEWYQQRPGQSPRRLIYKVFNRFSGVPDRFSGSGSGTDFTLKISRVEAEDVGVYYCFQDSFVPYTFGQGTKLEIKR"
